Reference: patent US9493537

Target: melanocortin-1 (MC1) receptor on B16/F1 murine melanoma cells (mouse (B16/F1 murine melanoma cells)) (UniProt Q01727)
Assay: cell-based or functional assay

Chain of melanocortin-1 (MC1) receptor on B16/F1 murine melanoma cells (mouse (B16/F1 murine melanoma cells)) (Q01727 whole entry): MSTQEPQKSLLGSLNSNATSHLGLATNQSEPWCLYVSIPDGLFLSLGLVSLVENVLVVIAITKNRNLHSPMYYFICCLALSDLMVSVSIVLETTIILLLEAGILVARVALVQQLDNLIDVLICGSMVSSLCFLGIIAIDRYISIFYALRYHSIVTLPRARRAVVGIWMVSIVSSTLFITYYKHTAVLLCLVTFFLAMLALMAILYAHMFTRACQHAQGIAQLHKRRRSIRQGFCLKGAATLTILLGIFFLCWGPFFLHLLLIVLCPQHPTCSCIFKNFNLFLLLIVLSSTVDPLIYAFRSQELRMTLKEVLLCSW

Row | tumor uptake in B16/F1 melanoma-bearing C57 mice at 2 h blocked by co-injection of non-radioactive NDP-MSH [%] | tumor uptake in B16/F1 melanoma-bearing C57 mice blocked by 10 µg (6.07 nmol) of non-radiolabeled NDP-MSH [%] | Substance
1 | 95.6 |  | 111In-DOTA-GENle-CycMSHhex (peptide)
2 |  | 98 | 111In-DOTA-GGNle-CycMSHhex (peptide)
